Assay type: biochemical
Conditions: total turnovers in ART hydroxylation; purified P450, NADPH regeneration system, 12 h

B1: wild-type P450BM3: catalytically self-sufficient fatty acid monooxygenase P450BM3 from Bacillus megaterium (protein, UniProt P14779 1-1049, looked up)
Bifunctional cytochrome …: MTIKEMPQPKTFGELKNLPLLNTDKPVQALMKIADELGEIFKFEAPGRVTRYLSSQRLIKEACDESRFDKNLSQALKFVRDFAGDGLFTSWTHEKNWKKAHNILLPSFSQQAMKGYHAMMVDIAVQLVQKWERLNADEHIEVPEDMTRLTLDTIGLCGFNYRFNSFYRDQPHPFITSMVRALDEAMNKLQRANPDDPAYDENKRQFQEDIKVMNDLVDKIIADRKASGEQSDDLLTHMLNGKDPETGEPLDDENIRYQIITFLIAGHETTSGLLSFALYFLVKNPHVLQKAAEEAARVLVDPVPSYKQVKQLKYVGMVLNEALRLWPTAPAFSLYAKEDTVLGGEYPLEKGDELMVLIPQLHRDKTIWGDDVEEFRPERFENPSAIPQHAFKPFGNGQRACIGQQFALHEATLVLGMMLKHFDFEDHTNYELDIKETLTLKPEGFVVKAKSKKIPLGGIPSPSTEQSAKKVRKKAENAHNTPLLVLYGSNMGTAEGTARDLADIAMSKGFAPQVATLDSHAGNLPREGAVLIVTASYNGHPPDNAKQFVDWLDQASADEVKGVRYSVFGCGDKNWATTYQKVPAFIDETLAAKGAENIADRGEADASDDFEGTYEEWREHMWSDVAAYFNLDIENSEDNKSTLSLQFVDSAADMPLAKMHGAFSTNVVASKELQQPGSARSTRHLEIELPKEASYQEGDHLGVIPRNYEGIVNRVTARFGLDASQQIRLEAEEEKLAHLPLAKTVSVEELLQYVELQDPVTRTQLRAMAAKTVCPPHKVELEALLEKQAYKEQVLAKRLTMLELLEKYPACEMKFSEFIALLPSIRPRYYSISSSPRVDEKQASITVSVVSGEAWSGYGEYKGIASNYLAELQEGDTITCFISTPQSEFTLPKDPETPLIMVGPGTGVAPFRGFVQARKQLKEQGQSLGEAHLYFGCRSPHEDYLYQEELENAQSEGIITLHTAFSRMPNQPKTYVQHVMEQDGKKLIELLDQGAHFYICGDGSQMAPAVEATLMKSYADVHQVSEADARLWLQQLEEKGRYAKDVWAG
**Q.** Which TTN does the source give for B1 here?
**A.** The TTN was “no ART-oxidation activity”.
